Measurements: publication PMC2916698 (Journal of cellular physiology, 2010)
Each block holds one binder with its values, some of them ahead of it.

Experiments:
Test in all cases: two-hybrid
[1] = molecular target: T1, Gal4-RXRα AF-1 (first 135 amino acids of human RXRα) (human, UniProt P19793 1-135)
T1 sequence (looked up): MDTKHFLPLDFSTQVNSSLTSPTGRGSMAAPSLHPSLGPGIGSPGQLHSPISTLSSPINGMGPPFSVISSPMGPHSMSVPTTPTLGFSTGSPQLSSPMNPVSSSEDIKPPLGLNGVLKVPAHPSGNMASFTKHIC

[2] = molecular target: Gal4-SRC-1 (Steroid Receptor Coactivator-1) (UniProt Q15788 1-1441)
Gal4-SRC-1 (Steroid Receptor Coactivator-1), sequence (Q15788 whole entry, the tested form may be a part): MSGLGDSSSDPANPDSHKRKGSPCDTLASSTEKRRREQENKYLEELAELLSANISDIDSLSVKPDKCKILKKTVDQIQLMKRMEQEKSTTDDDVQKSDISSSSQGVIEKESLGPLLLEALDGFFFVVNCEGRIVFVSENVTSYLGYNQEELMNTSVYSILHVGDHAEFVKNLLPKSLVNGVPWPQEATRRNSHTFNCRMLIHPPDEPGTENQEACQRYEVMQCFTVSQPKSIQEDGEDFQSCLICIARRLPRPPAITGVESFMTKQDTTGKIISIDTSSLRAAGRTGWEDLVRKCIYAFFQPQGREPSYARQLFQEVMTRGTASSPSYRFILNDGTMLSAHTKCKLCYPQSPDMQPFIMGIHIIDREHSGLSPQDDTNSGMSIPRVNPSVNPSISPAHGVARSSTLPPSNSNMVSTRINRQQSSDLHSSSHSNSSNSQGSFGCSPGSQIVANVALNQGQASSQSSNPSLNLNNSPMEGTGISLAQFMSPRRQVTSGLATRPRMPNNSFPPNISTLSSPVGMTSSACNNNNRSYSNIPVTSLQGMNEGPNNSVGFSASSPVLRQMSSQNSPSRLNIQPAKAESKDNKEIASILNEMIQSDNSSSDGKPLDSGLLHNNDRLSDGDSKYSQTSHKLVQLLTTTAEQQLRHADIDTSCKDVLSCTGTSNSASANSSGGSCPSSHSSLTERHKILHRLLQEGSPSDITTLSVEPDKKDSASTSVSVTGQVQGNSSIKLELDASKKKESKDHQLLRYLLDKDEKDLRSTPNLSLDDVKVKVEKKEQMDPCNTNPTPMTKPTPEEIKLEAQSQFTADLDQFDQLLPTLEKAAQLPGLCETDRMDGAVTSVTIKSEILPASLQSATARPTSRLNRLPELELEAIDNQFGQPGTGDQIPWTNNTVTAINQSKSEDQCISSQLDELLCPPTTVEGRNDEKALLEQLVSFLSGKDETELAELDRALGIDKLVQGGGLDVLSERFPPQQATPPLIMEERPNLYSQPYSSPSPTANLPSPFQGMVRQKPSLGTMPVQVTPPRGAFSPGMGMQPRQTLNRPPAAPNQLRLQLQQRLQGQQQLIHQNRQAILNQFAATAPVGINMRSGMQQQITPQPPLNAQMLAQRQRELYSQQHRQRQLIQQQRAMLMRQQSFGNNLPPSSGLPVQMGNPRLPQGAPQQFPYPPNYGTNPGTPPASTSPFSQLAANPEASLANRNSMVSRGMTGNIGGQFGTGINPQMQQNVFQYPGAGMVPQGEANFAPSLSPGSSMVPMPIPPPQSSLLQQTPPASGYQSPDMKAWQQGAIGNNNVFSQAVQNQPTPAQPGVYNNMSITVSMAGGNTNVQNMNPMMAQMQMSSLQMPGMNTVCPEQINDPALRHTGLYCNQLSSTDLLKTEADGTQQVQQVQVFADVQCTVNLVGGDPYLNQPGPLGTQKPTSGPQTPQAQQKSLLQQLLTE

[3] = molecular target: T2, Gal4-mouse RXRα ligand binding domain (LBD) (mouse, UniProt P28700 232-467)
T2 sequence (looked up): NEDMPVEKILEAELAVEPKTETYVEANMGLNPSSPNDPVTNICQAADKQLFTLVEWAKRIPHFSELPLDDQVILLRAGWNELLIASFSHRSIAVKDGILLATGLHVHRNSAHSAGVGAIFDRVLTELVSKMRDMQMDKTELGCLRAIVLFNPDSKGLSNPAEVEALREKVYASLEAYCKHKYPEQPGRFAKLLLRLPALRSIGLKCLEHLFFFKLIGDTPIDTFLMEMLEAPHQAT

two-hybrid signal above the empty GAL4 vector control, RWPE1 cells [1]: 8.2 fold
B1: VP16-SRC-1 (natural protein)
chain: not shown

fold induction of the two-hybrid signal by 1,25(OH)2D3, RWPE2 cells [2]: 10.4 fold
fold induction of the two-hybrid signal by 1,25(OH)2D3, RWPE1 cells [3]: 111 fold
fold induction of the two-hybrid signal by 1,25(OH)2D3, RWPE2 cells [3]: 178 fold
B2: VP16-rat VDR-LBD (domain or fragment, UniProt P13053 127-423, looked up)
chain: EQQHIIAILLDAHHKTYDPTYADFRDFRPPVRMDGSTGSYSPRPTLSFSGNSSSSSSDLYTTSLDMMEPSGFSNLDLNGEDSDDPSVTLDLSPLSMLPHLADLVSYSIQKVIGFAKMIPGFRDLTSDDQIVLLKSSAIEVIMLRSNQSFTMDDMSWDCGSQDYKYDVTDVSKAGHTLELIEPLIKFQVGLKKLNLHEEEHVLLMAICIVSPDRPGVQDAKLVEAIQDRLSNTLQTYIRCRHPPPGSHQLYAKMIQKLADLRSLNEEHSKQYRSLSFQPENSMKLTPLVLEVFGNEIS

fold induction of the two-hybrid signal by 1,25(OH)2D3, RWPE1 cells [2]: 2.6 fold
B3: VP16-mouse RXRα-LBD (domain or fragment, UniProt P28700 232-467, looked up)
chain: T2 sequence (looked up)
